± gives the standard deviation of the averaged measurements.
Test system: Saccharomyces cerevisiae
Assay: protein stability index of tFT-peptide fusion (C-terminal peptide) (PSI (0-1 scale)); higher = more stable (slower turnover)
Details: genetic background: wild type; temperature: 30 C
Method: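 Multiplexed protein stability (MPS) profiling in S. cerevisiae. Random 12-aa peptides (tFT-X12 library) are fused to the C-terminus of a sfGFP-mCherry tandem fluorescent timer, after mCherry and a GGGS linker. Cells are FACS-sorted into 8 mCherry/sfGFP bins and deep-sequenced. The protein stability index (PSI) is the read-weighted bin average, scaled from 0 (unstable) to 1 (stable). Only peptides with >10 reads are reported; cells were grown at 30 °C in SC-His with glucose.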
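Also: PSI is a weighted mean of sequencing reads over stability bins, variants kept only with over 10 reads, mCherry proximal and sfGFP distal, peptide attached via GGGS linker.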

Sequence	protein stability index
VPVVQPNRSALI	0.7454 ± 0.0071
RLYTNEMIRGSF	0.69 ± 0.04
RVLWVELGSWGG	0.708 ± 0.045
KVQGGGKYPTYS	0.699 ± 0.058
LGSFLPLLPSPP	0.674 ± 0.041
AEAKRKSTYKRW	0.607 ± 0.026
PSHSRSRPPPYL	0.742 ± 0.1
TNLYGWGGERTV	0.688 ± 0.0092
SYSPPPLPPHPP	0.55109 ± 0.00031
TRDATESLVERV	0.694 ± 0.02
KGEKKNEEEERG	0.68 ± 0.01
KGQIVIDTKGGG	0.609 ± 0.053
KDSSRHSPDPSR	0.715 ± 0.086
AALIHLSFYSPS	0.67 ± 0.02
AGSRPCPGWPPG	0.691 ± 0.011
AVCVSVCGRLLV	0.5492 ± 0.0023
SLLTSGSLTLFV	0.71 ± 0.037
RNTKGTIKKKKE	0.715 ± 0.074
HLLNPVRSPLPA	0.63 ± 0.063
PFALADSDGDSK	0.683 ± 0.059
RRKGGEERKLKK	0.629 ± 0.037
PLPPLPPTAPPP	0.686 ± 0.015
WLGGGGTVAHSP	0.726 ± 0.1
PSFPHLPDFFIP	0.6779 ± 0.0019
GGGLGGREPGGS	0.742 ± 0.15

Sequence	protein stability index
PLFAPLTPPLPP	0.734 ± 0.033
FALLVSDISGRI	0.811 ± 0.03
VVLSRSLTDLVR	0.677 ± 0.077
EGQARRAGRQGR	0.7349 ± 0.0053
TRTQTLAGILGG	0.677 ± 0.029
APGPAAPGHGYL	0.744 ± 0.039
RCGGGKWWRGAE	0.6566 ± 0.0035
SFCGVLCIRACF	0.623 ± 0.026
GLGPMPRGTSTI	0.692 ± 0.1
HSRPHTAPPYRA	0.643 ± 0.023
QVKVGQTEMAYN	0.78 ± 0.22
PHMRSPTPLLRP	0.697 ± 0.077
PGNKHYRARNGA	0.678 ± 0.013
PPVSPPLPPPPH	0.704 ± 0.03
PACSPLLAARVT	0.711 ± 0.061
LSRTPLPLPPPS	0.705 ± 0.019
HQPSPFPKNSPT	0.717 ± 0.06
PTTNHLSNRHNI	0.685 ± 0.085
GVAPGRSRRKRG	0.67 ± 0.018
CNRVSLSNVRLF	0.6675 ± 0.00083
GGGVHRAVRPGN	0.653 ± 0.03
SLPYPFSLLPSL	0.739 ± 0.03
RGSILTTVNPPR	0.75 ± 0.13
GAPKRLSISLSS	0.681 ± 0.019
DVGWRATGVLGG	0.7106 ± 0.0052

Sequence	protein stability index
APLPPPPDPPLP	0.695 ± 0.025
PWEVEAKNGRDR	0.717 ± 0.032
PFLSLPLSPPPP	0.71 ± 0.092
PPSPLAPPLPPP	0.709 ± 0.036
GSCVGASRGWLV	0.727 ± 0.068
FARQSMLSKLQI	0.587 ± 0.033
PFSVCVSSSLCG	0.665 ± 0.0076
SLDDWSAVFHVV	0.542 ± 0.012
LPPPPRPPLPSP	0.737 ± 0.068
VTRLTGKLVAEK	0.576 ± 0.027
PSPRISLSVFPC	0.646 ± 0.062
VWLLSNGFLAVD	0.706 ± 0.049
SNGGCIMSNIYS	0.758 ± 0.059
LSVAFFILRVPL	0.573 ± 0.071
SVMFSSLTRPPL	0.65 ± 0.11
KKKKKNKKNKKY	0.709 ± 0.038
RRKRTKGRGRAQ	0.6986 ± 0.002
VWFLSYLSVIFP	0.58 ± 0.04
RSCCSFRLEPYC	0.671 ± 0.026
PGPPFPMANTPF	0.646 ± 0.048
GGIGVGGGHMLL	0.656 ± 0.024
SSVILPLRRWPP	0.648 ± 0.094
EEGGVWIRVEAG	0.588 ± 0.019
GGWWGGGGAWSG	0.689 ± 0.053
SGLRAFVVTLID	0.673 ± 0.011

Sequence	protein stability index
ALRPLLGRDHKV	0.68 ± 0.042
EKKEGEREKQED	0.751 ± 0.15
WYCRWWGVRGGH	0.672 ± 0.1
HRCNCVFPENSL	0.693 ± 0.038
GSVGDASYAAVW	0.819 ± 0.034
IVNKRLKIRKKQ	0.658 ± 0.045
DPQRQDVFRVSE	0.6823 ± 0.0021
VVGAVVLRRGGP	0.67 ± 0.012
CTSCHVWRLSRF	0.765 ± 0.034
GGGAGGGSDRVV	0.736 ± 0.0096
LPLPTSPHPRPA	0.61 ± 0.046
LEDGDRVYQVTI	0.655 ± 0.012
VCIGVGGVVLGL	0.642 ± 0.039
LCSLWWGLVSGW	0.652 ± 0.029
SNKATNEGNVNV	0.68 ± 0.025
KMGGKRTKKIGQ	0.694 ± 0.086
PTQVSGIVPAPR	0.7732 ± 0.0051
VRWSRFCLAFPV	0.605 ± 0.04
CSLSYFSAHCVP	0.665 ± 0.044
PPSPYNPPSTAN	0.722 ± 0.0091
RGCVKQGLYCVL	0.679 ± 0.044
YLPWFADLHPGV	0.737 ± 0.073
GPWGGRLSWAPG	0.636 ± 0.0092
FSLSRWFDEIAL	0.6438 ± 0.00075
DKLDKKTLYLRK	0.729 ± 0.061

Sequence	protein stability index
PTPPSARAPPTT	0.686 ± 0.032
EIKGKLQEGRMD	0.75 ± 0.021
GLVSALSGLLTP	0.651 ± 0.089
PPPGLPPPLPPS	0.767 ± 0.015
KQLEKYKDIRRK	0.665 ± 0.061
PHPRPPPLSFAP	0.681 ± 0.035
GGSFVLGAALGV	0.668 ± 0.039
ALLTPPPLPPTV	0.61 ± 0.061
RGVCGVGLYTGG	0.657 ± 0.02
ILLSHRLQVSSC	0.564 ± 0.035
PPDAPPMPPPQH	0.738 ± 0.083
CECAEGRGKDRS	0.591 ± 0.0069
GEPGRLNSSLFA	0.678 ± 0.051
HDWPQTTRADQS	0.677 ± 0.036
LRRKTIEVSGLA	0.573 ± 0.026
TKNNYKKKKTKT	0.682 ± 0.029
GVSGGDGSKCKE	0.682 ± 0.016
GGGGGGGAGGSV	0.673 ± 0.0081
PPTFPPPLPLPP	0.692 ± 0.031
CVTFGGCGVWYV	0.624 ± 0.018
PPPTRPSQAPHL	0.645 ± 0.11
PPSRNPPDLDTQ	0.682 ± 0.14
GGWRGRAGENTR	0.698 ± 0.036
PPPPALIHSRPP	0.7406 ± 0.0045
PLFSPPFLPFSL	0.711 ± 0.028

Sequence	protein stability index
VRFYVFSFSNWL	0.586 ± 0.031
GRVGLRGRPGPP	0.716 ± 0.12
PLPEQIEATTAS	0.6921 ± 0.00086
KKQKKKTKANKT	0.673 ± 0.041
KAGHEPRLTRKQ	0.667 ± 0.022
WPSHVTLPYGLV	0.6545 ± 0.0057
EPYHYAWTQRSW	0.698 ± 0.015
RNFWIYTHTRCR	0.668 ± 0.049
APSLPPVVQPLI	0.663 ± 0.023
EEVKRKSGGKSK	0.662 ± 0.027
FLLFASPPPRPL	0.715 ± 0.017
SRPALLLGSEAT	0.642 ± 0.031
KRLKKKRNRAKA	0.683 ± 0.031
PLPSARPPPLPS	0.685 ± 0.011
GPSLLLLSVLSE	0.6225 ± 0.003
PSAPFPFPALGA	0.61 ± 0.028
WSWTNDAFFGVV	0.681 ± 0.068
SGKKERQKTEEE	0.645 ± 0.1
GSYVPPVVLLYK	0.647 ± 0.0095
PMSPCPTRSINA	0.702 ± 0.031
GLWQRVGIVIGC	0.58 ± 0.017

From the supplement of paper PMC10724198
